The DeepSol protein solubility set

Test: soluble on expression in E. coli; label from the status in PepcDB or PDB records

Sequence	soluble on expression in E. coli
MSKIEQIITEIEEYIDNCKFQPLSTSKIIVNKDEIDELLAELRLRTPDEIKKYQKIIANKDAILNDAKERAEAMVSEATAHINQLVSEHEIMQKAYEEANQIIEQAQAEAQGILDSATTEANDLRTRAMQYTDDILANVQSILSTGMDSFESAQNTMMTSLNSSLNVVVESRKELGGAEDEESVENGEDDNLSVDLL	not soluble
MNIKLYYVHDPMCSWCWGYKPTIEKLKQQLPGVIQFEYVVGGLAPDTNLPMPPEMQQKLEGIWKQIETQLGTKFNYDFWKLCTPVRSTYQSCRAVIAAGFQDSYEQMLEAIQHAYYLRAMPPHEEATHLQLAKEIGLNVQQFKNDMDGTLLEGVFQDQLSLAKSLGVNSYPSLVLQINDAYFPIEVDYLSTEPTLKLIRERIIENMSAQ	soluble
MKVLTVFGTRPEAIKMAPLVHALAKDPFFEAKVCVTAQHREMLDQVLKLFSIVPDYDLNIMQPGQGLTEITCRILEGLKPILAEFKPDVVLVHGDTTTTLATSLAAFYQRIPVGHVEAGLRTGDLYSPWPEEANRTLTGHLAMYHFSPTETSRQNLLRENVADSRIFITGNTVIDALLWVRDQVMSSDKLRSELAANYPFIDPDKKMILVTGHRRESFGRGFEEICHALADIATTHQDIQIVYPVHLNPNVREPVNRILGHVKNVILIDPQEYLPFVWLMNHAWLILTDSGGIQEEAPSLGKPVLVMRDTTERPEAVTAGTVRLVGTDKQRIVEEVTRLLKDENEYQAMSRAHNPYGDGQACSRILEALKNNRISLGSHHHHHH	soluble
MGSDKIHHHHHHMEPGSQVTDRLRFGCTGCGKCCTGHHVPLTLAEARRWAEDAGQVVVLIEAFVVDGPGMPLEQRDHVLRRSHPVHCGEGEARVSVTFAAFNPGRCRNLDANDLCTIYEQRPLVCRIYPVEINPHIPLRPDSKDCPPEAWQQGPELIHGTQLVDVELQALVQASRQADRDDIAAKVAVCQALGMTTSALKGNGFTAYLPDMGAFAAALAQVQGNEGAQWTLHVQDEALTASLQALGLRTTHETPVYYAFIGF	not soluble
MSLYKADMLGDAYEYLIKQFADDAGKKGGEFYTPKAVVQLVVELIDPRPGHSVYDPTCGSGGMLVESAHHVSGLPDGTLMGKPNVLLYGQEKNLGTWAIAKLNLYLHNMHASIERGDTLVEPKHLDGDYLKTFDRVIANPPFSAKSWWTPLELSNENEQENGKKVKAPNYKQVSDPYGRLVYGVPPRGYADLAFAQHMLASLKADGRMGVILPHGVLFRSGEEGKIREGLLFGTGAASGNQPGDVIEAIVGLPSALFYNTGIPACVLILNKQKPSALKDKVIIIDGSRDYLEGKAQNSLHAEDILRIVSTHKAAFEQQVEVENYCRLVTLDEIRSNDGNLNIVRYIDNGESDEVVNVAATLAHMATLAKEEAQIDQRLNRYLMELGLLETGEGHHHHHH	not soluble
KGKCVIFIIDGLGDRPNEKGLTPLKEAKTPTMDKIAKEGICGLMNAIDIGIRPGSDTAHLAILGYNPYEVYTGRGPLEAFGVGLDLKEGDIAFRCNFATVDENFVVLDRRAGRISPEEAEELEKEIDGLEIDGVKVIFKSSKGYRGALVLRGEGLSCRVSDGDPHEEGVKVSEIKPLDDSEEAKRTAEILNKLLKIVYEKLNNHPINEERRKKGLPPANIILPRGAGVVPKIEKFSEKYNMKGACICGTGLIKGMAKMIGLDVIEVEGATGTPKTNFMGKAKALVEALKEYDFVLVNVKGADEASHDGNYELKKEVLEKIDEMLAYVFEHINKDEVYFVLTGDHSTPIEMKDHSADPIPIVIWGKSVRVDDVTEFNEFACAKGALHWIKGEHVMKILLDLTG	not soluble
SGGRRSSWIKNWTLWKHFKDYFPIHLIKTQDLDPSHNYIFGFHPHGIMAVGAFGNFSVNYSDFKDLFPGFTSYLHVLPLWFWCPVFREYVMSVGLVSVSKKSVSYMVSKEGGGNISVIVLGGAKESLDAHPGKFTLFIRQRKGFVKIALTHGASLVPVVSFGENELFKQTDNPEGSWIRTVQNKLQKIMGFALPLFHARGVFQYNFGLMTYRKAIHTVVGRPIPVRQTLNPTQEQIEELHQTYMEELRKLFEEHKGKYGIPEHETLVLK	soluble
MKPRIYVKVKPERLGAVIGPRGEVKAEIMRRTGTVITVDTENSMVIVEPEAEGIPPVNLMKAAEVVKAISLGFPPEKAFRLLEEDQILVVVDLKQVVGDSQNHLKRIKGRIIGEGGRARRTIEEMTDTYINVGEYEVAIIGDYERAMAAKQAIEMLAEGRMHSTVYRHLERIMREIKRRERLKMWAREEL	soluble
MNYSHPISLKTLVQEDDIGVNAPIIHQSVIARLTAGLYPLYQSKKIPFEPLPETMLTEGYSSPVPDVLLYDHQTEEAKVIIEVCQNSGLKHDTSKIVKLIEDNAYGILEGFVFNYKTQQWLRYRLGDGGVATNSSFSEVLQVDLNTFV	soluble
MGSDKIHHHHHHMTVQRREKGSSITRVLEIIEAISRAERPMSPAELAFLLDIPKPSIHRLLQQLEADNYVQINMRGLLVPGDRMHSIALGVLHSSRFKALRQAILKKLAETIGETCGIAIPDGIEMIYYDRVQTNWPLRVNLPVGSHTPVACTASGKLYLSSLPKERRHRIIGKLSLEKLARNTLIESESLEKELINIQANELGTDNEEFIDGMVACSVPIKDQDGKLFACLFTHAPVIRKSLDELLAFEPALRHAAIELGDLLKEQ	not soluble
GEPVEFQPKYRDLMLVVDLSGSMQKEDMNLDGEYIDRLSAVKKVLSDFVAKRKGDRLGVVLFGDHAYLQTPLTADRQTVIQQIKQTVIGLVGQRTAIGDGIGLGTKTFVDSDAPQRVMILLSDGSNTAGVLDPIEAAEIAKK	not soluble
MPIRSNPFFNMDSSALLSLLRHTGTSMDSKSSKKSSGSIGGGVLKMFKLIPMLSSGCKMVNLLSRGHRRPLLKDYATTGTIFGFRKGRVFLAIQEDPHCLPIFIIELPMLTSALQKEMASETVRIALESETKTSRKKVLEEYVWGIYCNGRKIGYSIRRKNMSEEEMYVIDALRGVSMGAGVLPCKNQYDQETEGEMTYMRARFDRVIGSKDSEALYMINPEGSGQGTELSIYFLRSH	soluble
MPPKTRKTKKEDVEEEAVEEILEETKPAKLPESDESYSRKVVISKEGNLPNSRIIKLRHPKEGLALFRISETCFDEIFAVNDGHRSFFYGESVIENGTIHIFTPYNLVFICLPYLQKTAGKFVEIGEILVDDQVDGIKELAENERILKALEAVSDVKDVLDVKLYRLNDQKMLDWMRRKFDSLKKLLESDAHKSLLSCPEAFDRYVFTFLSEYLSSDLALIVKDHLNIQDATVSENIDMSMKRKAVDDDELEDKKQPVAKKPKESVQSKKLQAASKGTKSISSFFGKKSA	soluble
MISIFDIFKIGIGPSSSHTVGPMKAAAAFAAGLDAQAVRIVIDIYGSLALTGYGHGTFDALMLGLEGSLPHDIPLAGIPERLERIRTQHILRLNGQEIRFIPDRDLNILGNQVLPKHPNSLRFTAYASDGTVLNEQVYYSVGGGFVVTEEDFDR	not soluble
MAIIFNPNKKIFTLQTAHTTYQMQVDRLGYLLHLYYGAKSTCDMDYVLTYADRGFSGNPYAAGMNRTYSLDTLPQEYPTLGTGDFRNIALDIKNEQGTESVELLYKSYEIRDGKYALKGLPAVWASDDEAQTLEIVLGDDIAGVEVHLLYGVLEACDVITRSVLIKNTGSGNITIEKAHAACLDMVYGDYDVIRFYGKHAMERNLERTHLGHGTLSFGSRRGTSSHQYNPAVILAQRDTTENAGDCYGMLFVYSGNFSCEAEKDQINQTRLLMGLSDELFSYPLAAGETFTVPEVIMSYSADGFSQLSHQYHTCISEHVCRSRFAHEVRPVLINSWEAAYFDFTGDTIVDLAKEAASLGIDMVVMDDGWFGKRDDDNSSLGDWFVNEKKLGGTLSELIDRVHAQGVKFGIWIEPEMVNEDSNLYREHPDWAIQIPGKLPVRSRNQLILDFSRKEVRDNIFNQICAVFDQGKIDYVKWDMNRSMADVYAGNLAYDYVLGVYDFMERLVTRYPDILLEGCSGGGGRFDAGMLYYSPQIWCSDNTDAINRTRIQYGTSFFYPVSSMGAHVSAVPNHQTGRVTSLKTRGITAMAGTFGYELNPALLSDEEKEEIREQIKTFKKYEMLINEGTYWRLTSPFEDEVAAWMSVSRTKDRALVSVVRLYAEANAAACYVKLKGLESDAVYIEENTGRQYTGAALMNAGIPLPFAVKEYEAYQFSFIRLDEAKKLYDEIKKVCGNLKLNEADTADSASDNRLEHHHHHH	soluble
